Reference: patent US20240368239A1, “Novel bispecific protein and use thereof” (SL METAGEN, priority 2020, published 2024)

Key:
GLP-1 receptor = assay: cell-based or functional assay
[1] = biological target: human GLP-2 receptor (human) (UniProt O95838); assay: cell-based or functional assay
Sequence of human GLP-2 receptor (human) (O95838 whole entry): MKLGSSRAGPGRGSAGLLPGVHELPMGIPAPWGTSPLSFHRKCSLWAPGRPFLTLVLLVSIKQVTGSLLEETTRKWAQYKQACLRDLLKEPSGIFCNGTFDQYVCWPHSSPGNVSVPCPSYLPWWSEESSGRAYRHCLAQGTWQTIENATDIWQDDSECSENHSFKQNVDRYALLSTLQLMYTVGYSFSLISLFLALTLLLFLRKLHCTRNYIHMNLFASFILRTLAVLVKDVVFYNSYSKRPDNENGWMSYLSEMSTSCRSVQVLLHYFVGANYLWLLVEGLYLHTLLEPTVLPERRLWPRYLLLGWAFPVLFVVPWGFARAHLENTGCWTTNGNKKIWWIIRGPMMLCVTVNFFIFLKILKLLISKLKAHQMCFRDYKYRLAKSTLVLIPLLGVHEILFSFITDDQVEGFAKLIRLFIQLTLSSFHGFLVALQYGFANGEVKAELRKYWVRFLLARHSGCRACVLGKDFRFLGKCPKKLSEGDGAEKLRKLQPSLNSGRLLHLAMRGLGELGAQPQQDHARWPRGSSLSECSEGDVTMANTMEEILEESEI

| EC50 (pM), cAMP luciferase reporter in GLP1R cAMP/luc cells (GLP-1 receptor) [pM] | vs. GLP-1 relative activity (%) (GLP-1 receptor) | EC50 (nM), cAMP-gated CNG channel membrane potential dye fluorescence (Ft/F0) in Human GLP2R ACTOne cells [1] [nM] | vs. GLP-2 relative activity (%) [1] [%] | Substance |
| --- | --- | --- | --- | --- |
| 26 | 100 | – | – | native GLP-1 peptide (from UniProt P01275 98-127) |
| – | – | 0.58 | 100 | native GLP-2 peptide (from UniProt P01275 146-178) |
